From publication PMC10966353

Target: A/Puerto Rico/8/1934 hemagglutinin with an N-terminal sfGFP, GCN4-pII trimerization motif and Strep-tag II (influenza A virus A/Puerto Rico/8/1934)
Assay: negative stain electron microscopy

Substance: A/Puerto Rico/8/1934 hemagglutinin with an N-terminal sfGFP, GCN4-pII trimerization motif and Strep-tag II
- stoichiometry N: 3
